Reference: patent US20170319688A1 (Genentech, published 2017)
Numbering of substitutions follows the chain as printed.

T1: cynomolgus RSPO3 (cynomolgus, UniProt A0A2K5UTQ7 22-273)
T1 construct: also called cyno RSPO3
T1 sequence: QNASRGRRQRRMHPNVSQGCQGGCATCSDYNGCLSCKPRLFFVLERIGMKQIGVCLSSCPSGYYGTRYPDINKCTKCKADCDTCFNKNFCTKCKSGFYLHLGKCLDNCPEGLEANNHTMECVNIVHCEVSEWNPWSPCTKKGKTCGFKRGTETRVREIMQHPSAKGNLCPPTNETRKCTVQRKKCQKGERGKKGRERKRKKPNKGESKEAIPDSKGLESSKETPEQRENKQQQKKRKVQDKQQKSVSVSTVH

T2: murine RSPO3 (R&D Systems Cat. No. 4120-RS/CF) (murine, UniProt Q2TJ95 22-277, limits assumed)
T2 construct: also called mouse RSPO3
T2 sequence (looked up): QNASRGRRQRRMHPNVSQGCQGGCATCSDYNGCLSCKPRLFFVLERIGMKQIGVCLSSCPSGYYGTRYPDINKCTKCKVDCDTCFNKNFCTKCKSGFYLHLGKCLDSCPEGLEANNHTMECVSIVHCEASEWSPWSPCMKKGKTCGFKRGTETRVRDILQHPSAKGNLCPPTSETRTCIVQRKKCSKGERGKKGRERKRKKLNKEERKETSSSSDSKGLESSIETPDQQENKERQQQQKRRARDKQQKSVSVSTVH

T3: human RSPO3 (human, UniProt Q9BXY4 22-272)
T3 construct: Recombinant human RSPO3 protein (Genentech); also called huRSPO3; hRSPO3
T3 sequence: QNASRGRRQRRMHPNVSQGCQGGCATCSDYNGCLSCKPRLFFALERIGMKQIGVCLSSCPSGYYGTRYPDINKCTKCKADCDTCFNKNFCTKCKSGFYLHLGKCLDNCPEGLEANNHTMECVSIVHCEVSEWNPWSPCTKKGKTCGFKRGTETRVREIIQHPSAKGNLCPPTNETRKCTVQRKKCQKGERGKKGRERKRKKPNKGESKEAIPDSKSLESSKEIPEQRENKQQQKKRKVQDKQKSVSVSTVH

B1: hu4A6.L4H2 (antibody, V domains shown)
VH: EVQLVESGGGVVQPGRSLRLSCAASGFTFSDYDMAWVRQAPGKGLEWVATIIYDGSRTYYRDSVKGRFTISRDNSKNTLYLQMNSLRAEDTAVYYCAAHDRSFDYWGQGTMVTVSS
VL: DIQMTQSPSSLSASVGDRVTITCLASEDISNDLVWYQQKPGKAPKLLIYAASRLQDGVPSRFSGSGFGTDFTLTISSLQPEDFATYYCQQSYKYLPTFGQGTKLEIK
notes: CDR graft only (L4, H2); also called humanized 4A6
B2: hu15F3.L4H2 (antibody, V domains shown)
VH: B1 VH with T58A, Y60F, R61G, K65R, A97T
VL: B1 VL with A25V, L33F, F67S, L95P
notes: CDR graft only (L4, H2); also called humanized 15F3
B3: chimeric 4A6 (antibody, V domains shown)
VH: EVQLVESGGGSVQPGRSLKVSCAASGFTFSDYDMAWVRQAPKKGLEWVATIIYDGSRTYYRDSVKGRFTLSRDNTKSTLCLQMDSLRSEDTATYYCAAHDRSFDYWGQGIMVTVSS
VL: DIQMTQSPASLSASLGETVSIECLASEDISNDLVWYQQKSGKSPQLLIYAASRLQDGVPSRFSGSGFGTRFSLKISGMQPEDEADYFCQQSYKYLPTFGAGTKLGLK
notes: Chimeric counterpart of hu4A6 with the rat 4A6 variable domains
B4: chimeric 15F3 (antibody, V domains shown)
VH: B3 VH with S11L, V20L, T58A, Y60F, R61G, K65R, L70V, C80Y, A97T, I110V
VL: B3 VL with A25V, L33F, F67S, K74R, D85E, L95P, G105E
notes: Chimeric counterpart with the rat 15F3 variable domains
B5: chimeric 11C10 (antibody, V domains shown)
VH: B3 VH with S11L, V20L, L70I, D73A, T75A, C80Y, A98T, R101K, S102T, I110V
VL: DIQMTQSPASLSASLGETVTIECRASEDIYSDLAWYQQKPGNSPQLLIYDVNSLIHGVPSRFSGSGSGTQFSLKINNLQSEDVASYFCQQYDNYPNTFGAGTKLELK
notes: Chimeric counterpart with the rat 11C10 variable domains
B6: hu11C10.L5H1 (antibody, V domains shown)
VH: B1 VH with A98T, R101K, S102T
VL: DIQLTQSPSSLSASVGDRVTITCRASEDIYSDLAWYQQKPGKAPKLLIYDVNSLIHGVPSRFSGSGSGTDFTLTISSLQPEDFATYYCQQYDNYPNTFGQGTKLEIK
notes: CDR graft light chain L5 with H1; also called humanized 11C10
B7: anti-RSPO3 antibody 5D6 (WO2015/058132) (antibody, V domains shown)
VH: EVQLQESGPSLVKPSQTLSLTCSVTGDSITSGYWNWIRKFPGNKFEYMGYISYSGKTYQNPSLKSRISITRDTSKNQYHLQLNSVTTEDTATYYCATYYGYGGPWFAYWGQGTLVTVSA
VL: DIVLTQSPSSMYASLGERVTITCKASQDIDSYLSWFQQKPGKSPKTLIYLTNRLVDGVPSRFSGSGSGQDYSLTISSLEYEDMGIYYCLHYDEFPLTFGAGTKLEIK

Biological target: T1, cynomolgus RSPO3
Experiment: SPR (BIAcore T200), RSPO3 immobilized, antibody injected, 25 C, 1:1 Langmuir

Q: Which Kd does the source give for B1 here?
A: Its Kd is 0.247 nM.

Q: What about the koff of the same binder?
A: Its koff is 5.95e-05 s⁻¹.

Q: And the kon?
A: Its kon is 241000 M⁻¹ s⁻¹.

Q: Which results are given for B2?
A: Kd: 0.466 nM; koff: 0.000116 s⁻¹; kon: 248000 M⁻¹ s⁻¹

Q: How did the Kd turn out when B3 was run?
A: Its Kd is 0.174 nM.

Q: What about the koff of the same binder?
A: The koff was 3.36e-05 s⁻¹.

Q: What about the kon of the same binder?
A: The kon was 194000 M⁻¹ s⁻¹.

Q: B4 was tested. Which Kd did it give?
A: The Kd was 0.576 nM.

Q: And the koff?
A: Its koff is 0.000121 s⁻¹.

Q: And the kon?
A: Its kon is 210000 M⁻¹ s⁻¹.

Q: B5 was tested. Which Kd did it give?
A: The Kd was 1.52 nM.

Q: What about the koff of the same binder?
A: The koff was 0.000963 s⁻¹.

Q: What about the kon of the same binder?
A: The kon was 633000 M⁻¹ s⁻¹.

Q: Which results are given for B6?
A: Kd: 1.75 nM; koff: 0.00121 s⁻¹; kon: 695000 M⁻¹ s⁻¹

Q: What does the source list for B7?
A: Kd: 0.697 nM; koff: 0.000321 s⁻¹; kon: 461000 M⁻¹ s⁻¹

Biological target: T2, murine RSPO3 (R&D Systems Cat. No. …)
Experiment: as above

Q: How did the Kd turn out when B1 was run?
A: The Kd was 0.441 nM.

Q: What about the koff of the same binder?
A: The koff was 8.08e-05 s⁻¹.

Q: What about the kon of the same binder?
A: The kon was 183000 M⁻¹ s⁻¹.

Q: With B2 as the binder, how does the Kd read?
A: Its Kd is 0.775 nM.

Q: And the koff?
A: The koff was 0.000147 s⁻¹.

Q: What about the kon of the same binder?
A: Its kon is 190000 M⁻¹ s⁻¹.

Q: Which Kd does the source give for B3 here?
A: Its Kd is 0.337 nM.

Q: And the koff?
A: Its koff is 5.22e-05 s⁻¹.

Q: What about the kon of the same binder?
A: The kon was 155000 M⁻¹ s⁻¹.

Q: For B4, which Kd is on record?
A: The Kd was 0.926 nM.

Q: What about the koff of the same binder?
A: The koff was 0.000156 s⁻¹.

Q: What about the kon of the same binder?
A: Its kon is 169000 M⁻¹ s⁻¹.

Q: What does the source list for B5?
A: Kd: 2.76 nM; koff: 0.00107 s⁻¹; kon: 388000 M⁻¹ s⁻¹

Q: With B6 as the binder, how does the Kd read?
A: The Kd was 3.22 nM.

Q: And the koff?
A: The koff was 0.00138 s⁻¹.

Q: What about the kon of the same binder?
A: The kon was 429000 M⁻¹ s⁻¹.

Q: What does the source list for B7?
A: Kd: 0.913 nM; koff: 0.000326 s⁻¹; kon: 357000 M⁻¹ s⁻¹

Biological target: T3, human RSPO3
Experiment: as above

Q: Which Kd does the source give for B1 here?
A: The Kd was 0.434 nM.

Q: What about the koff of the same binder?
A: Its koff is 8.47e-05 s⁻¹.

Q: What about the kon of the same binder?
A: The kon was 195000 M⁻¹ s⁻¹.

Q: How did the Kd turn out when B2 was run?
A: The Kd was 0.839 nM.

Q: What about the koff of the same binder?
A: Its koff is 0.000164 s⁻¹.

Q: What about the kon of the same binder?
A: The kon was 196000 M⁻¹ s⁻¹.

Q: How did the Kd turn out when B3 was run?
A: Its Kd is 0.363 nM.

Q: And the koff?
A: The koff was 5.85e-05 s⁻¹.

Q: And the kon?
A: The kon was 161000 M⁻¹ s⁻¹.

Q: Which results are given for B4?
A: Kd: 0.845 nM; koff: 0.000151 s⁻¹; kon: 179000 M⁻¹ s⁻¹

Q: Which Kd does the source give for B5 here?
A: The Kd was 2.67 nM.

Q: What about the koff of the same binder?
A: Its koff is 0.00113 s⁻¹.

Q: What about the kon of the same binder?
A: The kon was 425000 M⁻¹ s⁻¹.

Q: Which results are given for B6?
A: Kd: 3.01 nM; koff: 0.00145 s⁻¹; kon: 480000 M⁻¹ s⁻¹

Q: Which Kd does the source give for B7 here?
A: Its Kd is 0.485 nM.

Q: And the koff?
A: Its koff is 0.000127 s⁻¹.

Q: And the kon?
A: Its kon is 261000 M⁻¹ s⁻¹.
